# Measurements from PMC9536601.
# What was measured:
# [1] = target: chimeric hexon of the Ad5 vector Ad5:H6.3 (Ad6 hexon section with HVR7 mutations, on virions) (human adenovirus 5 | human adenovirus 6) (UniProt P04133); assay: SPR; Biacore T200; about 300 to 5,000 RU of Ad virions immobilised on a CM5 chip, coagulation factors flowed over at four concentrations, 50 uL/min; running buffer 10 mM HEPES, 150 mM NaCl, 1 mM CaCl2, 0.5 mM MgCl2, 0.1% BSA, 0.05% polysorbate 20, pH 7.4; regeneration with 3 mM EDTA; global fit to a 1:1 kinetic interaction model, double referencing
# [2] = target: chimeric hexon of the Ad5 vector Ad5:H6.1 (Ad5 hexon with residues 112-593 from Ad6 hexon, on virions) (human adenovirus 5 | human adenovirus 6) (UniProt P04133); assay: as above
# [3] = target: chimeric hexon of the Ad5 vector Ad5:H6.2 (Ad6 hexon section with HVR7 mutations, on virions) (human adenovirus 5 | human adenovirus 6) (UniProt P04133); assay: as above
# [4] = target: chimeric hexon of the Ad5 vector Ad5:H1.1 (Ad5 hexon with residues 112-593 from Ad1 hexon, on virions) (human adenovirus 5 | human adenovirus 1) (UniProt P04133); assay: as above
# [5] = target: hexon of wild-type human adenovirus type 1 (on virions) (human adenovirus 1); assay: as above
# [6] = target: chimeric hexon of the Ad5 vector Ad5:H57.1 (Ad5 hexon with residues 112-593 from Ad57 hexon, on virions) (human adenovirus 5 | human adenovirus 57) (UniProt P04133); assay: as above
# [7] = target: chimeric hexon of Ad5:H57.1 (Ad5 vector, hexon residues 112-593 from Ad57 hexon), on the virion (human adenovirus type 5 | human adenovirus type 57) (UniProt P04133); assay: SPR; Biacore T200; about 300 to 5,000 RU of Ad virions immobilised on a CM5 chip, coagulation factors flowed over at four concentrations, 50 uL/min; 10 mM HEPES, 150 mM NaCl, 1 mM CaCl2, 0.5 mM MgCl2, 0.1% BSA, 0.05% polysorbate 20, pH 7.4; global fit to a 1:1 kinetic interaction model, double referencing
# [8] = target: chimeric hexon of Ad5:H1.1 (Ad5 vector, hexon residues 112-593 from Ad1 hexon), on the virion (human adenovirus type 5 | human adenovirus type 1) (UniProt P04133); assay: as above
# [9] = target: chimeric hexon of Ad5:H6.1 (Ad5 vector, hexon residues 112-593 from Ad6 hexon), on the virion (human adenovirus type 5 | human adenovirus type 6) (UniProt P04133); assay: as above
# [10] = target: chimeric hexon of Ad5:H6.2 (Ad5 vector, hexon residues 112-593 from Ad6 hexon, HVR7 IGNTDTF), on the virion (human adenovirus type 5 | human adenovirus type 6) (UniProt P04133); assay: as above
# [11] = target: chimeric hexon of Ad5:H6.3 (Ad5 vector, hexon residues 112-593 from Ad6 hexon, HVR7 IGNTETF), on the virion (human adenovirus type 5 | human adenovirus type 6) (UniProt P04133); assay: as above
substance,measurement,setting,value
bovine prothrombin (coagulation factor II) (from UniProt P00735 44-625) (natural protein),Kd,[1],2.5 µM
same,koff,[1],0.0729 s⁻¹
same,kon,[1],29200 M⁻¹ s⁻¹
same,Kd,[2],0.067 µM
same,koff,[2],0.0039 s⁻¹
same,kon,[2],58200 M⁻¹ s⁻¹
same,Kd,[3],0.95 µM
same,koff,[3],0.0291 s⁻¹
same,kon,[3],30500 M⁻¹ s⁻¹
same,Kd,[4],0.034 µM
same,koff,[4],0.00224 s⁻¹
same,kon,[4],65800 M⁻¹ s⁻¹
same,Kd,[5],0.037 µM
same,koff,[5],0.00193 s⁻¹
same,kon,[5],52800 M⁻¹ s⁻¹
same,Kd,[6],0.027 µM
same,koff,[6],0.000993 s⁻¹
same,kon,[6],37400 M⁻¹ s⁻¹
same,Kd,[7],0.027 µM
same,Kd,[8],0.034 µM
same,Kd,[9],0.067 µM
same,Kd,[10],0.95 µM
same,Kd,[11],2.5 µM
